Assay results published in patent US8592138B2, “Methods for improving sperm functionality” (Androgenix Ltd., priority 2010, dated 2013).

How the values were obtained:
[1] = test system: sperm cells; assay: Flow cytometry of pegylated seminal proteins binding to sperm; format: cell-based, bovine; conditions: 1 μg/mL pegylated SP protein, 30 min at 28° C.
Procedure: (§1) NHS-dPEG4-Biotin was resuspended in H2O. Two hundred micrograms of PDC-109, BSP-A3, BSP-30 kDa and aSFP, were mixed in molar ratios of 1:5, 1:20, 1:40 and 1:60 with NHS-dPEG4Biotin and incubated for 30 min at room temperature. The reaction was stopped by the addition of 1M Tris-HCl pH7.4 at a final concentration of 25 mM. Pegylated proteins were dialysed against PBS to remove excess PEG. Pegylation was assessed by SDS-PAGE with Coomassie Blue staining. […] Western blots with labelled streptavidin supported this conclusion.
Sperm cells were prepared by centrifugation of fresh ejaculate containing extender through a 60% Percoll™ PLUS gradient followed by one wash in NCM. The sperm cells were then incubated for 30 min at 28° C. with 1 μg/mL of each of the pegylated SP proteins. After incubation with the pegylated SP proteins, cells were washed once, streptavidin-alexa fluor 488 was added to the cells and they were incubated for a further 30 min at 37° C. Flow cytometry analysis was then conducted.

[2] = test system: Bovine sperm cells; assay: Fluorescence microscopy of pegylated seminal proteins binding to sperm; format: cell-based; conditions: pegylated/biotinylated SP protein, 37° C. for 30 min in NCM
Procedure: as §1
Bovine sperm cells from liquid extended semen were percoll-purified and washed in non-capacitating media (NCM; Table 3 below) with addition of 0.1% PEG (MW 600, Serva). The cells were incubated with pegylated/biotinylated SP proteins in NCM at 37° C. for 30 min, and centrifuged once to remove the supernatant. Cell pellets were resuspended in NCM containing streptavidin-alexa fluor 488 and LIVE/DEAD fixable far red dye, and incubated at 37° C. for 1 hr. Cells were washed once in NCM, and resuspended in NCM to a final concentration close to 10^7 cells/ml. DAPI was added to cells, and 10^5 cells were placed onto Superfrost plus slide. The sperm cells were studied with a Leica DMRE microscope equipped with a Leica DC500 camera, a fluorescent ebq 100 lamp and interchangeable filter sets.

B1: PDC-109: bovine seminal plasma protein purified by ion exchange chromatography; SEQ ID NO: 1 (protein, listed as Bos taurus)
chain: MALQLGLFLIWAGVSVFLQLDPVNGDQDEGVSTEPTQDGPAELPEDEECVFPFVYRNRKHFDCTVHGSLFPWCSLDADYVGRWKYCAQRDYAKCVFPFIYGGKKYETCTKIGSMWMSWCSLSPNYDKDRAWKYC
Binding to sperm cells (right-shift in the histogram vs streptavidin-alexa fluor 488 alone) [1]: demonstrated binding to sperm cells

B2: BSP-A3: bovine seminal plasma protein; SEQ ID NO: 2 (protein, listed as Bos taurus)
chain: MALRLGLFLIWAGVSMFLQLDPVNGDEQLSEDNVILPKEKKDPASGAETKDNKCVFPFIYGNKKYFDCTLHGSLFLWCSLDADYTGRWKYCTKNDYAKCVFPFIYEGKSYDTCIIIGSTFMNYWCSLSSNYDEDGVWKYC
Binding to sperm cells (right-shift in the histogram vs streptavidin-alexa fluor 488 alone) [1]: demonstrated binding to sperm cells

B3: aSFP: acidic seminal fluid protein, bovine spermadhesin; SEQ ID NO: 4 (protein, listed as Bos taurus)
chain: MKLSSVIPWALLLSTATVDSMDWLPRNTNCGGILKEESGVIATYYGPKTNCVWTIQMPPEYHVRVSIQYLQLNCNKESLEIIDGLPGSPVLGKICEGSLMDYRSSGSIMTVKYIREPEHPASFYEVLYFQDPQA
Fluorescent signal on sperm (streptavidin-alexa fluor 488) [2]: strong fluorescent signal in the acrosomal cap part of sperm head
